B1: BBSome complex member BBS1 (Homo sapiens), Q8NFJ9 (parent)
chain: MAAASSSDSDACGAESNEANSKWLDAHYDPMANIHTFSACLALADLHGDGEYKLVVGDLGPGGQQPRLKVLKGPLVMTESPLPALPAAAATFLMEQHEPRTPALALASGPCVYVYKNLRPYFKFSLPQLPPNPLEQDLWNQAKEDRIDPLTLKEMLESIRETAEEPLSIQSLRFLQLELSEMEAFVNQHKSNSIKRQTVITTMTTLKKNLADEDAVSCLVLGTENKELLVLDPEAFTILAKMSLPSVPVFLEVSGQFDVEFRLAAACRNGNIYILRRDSKHPKYCIELSAQPVGLIRVHKVLVVGSTQDSLHGFTHKGKKLWTVQMPAAILTMNLLEQHSRGLQAVMAGLANGEVRIYRDKALLNVIHTPDAVTSLCFGRYGREDNTLIMTTRGGGLIIKILKRTAVFVEGGSEVGPPPAQAMKLNVPRKTRLYVDQTLREREAGTAMHRAFQTDLYLLRLRAARAYLQALESSLSPLSTTAREPLKLHAVVQGLGPTFKLTLHLQNTSTTRPVLGLLVCFLYNEALYSLPRAFFKVPLLVPGLNYPLETFVESLSNKGISDIIKVLVLREGQSAPLLSAHVNMPGSEGLAAA

Variants of: B1
Conditions: with Lepr

Question: MAAASSSDSDACGAESNEANSKWLDAHYDPMANIHTFSACLALADLHGDGEYKLVVGDLGPGGQQPRLKVLKGPLVMTESPLPALPAAAATFLMEQHEPRTPALALASGPCVYVYKNLRPYFKFSLPQLPPNPLEQDLWNQAKEDRIDPLTLKEMLESIRETAEEPLSIQSLRFLQLELSEMEAFVNQHKSNSIKRQTVITTMTTLKKNLADEDAVSCLVLGTENKELLVLDPEAFTILAKMSLPSVPVFLEVSGQFDVEFRLAAACRNGNIYILRRDSKHPKYCIELSAQPVGLIRVHKVLVVGSTQDSLHGFTHKGKKLWTVQMPAAILTMNLLEQHSRGLQAVMAGLANGEVRIYRDKALLNVIHTPDAVTSLCFGRYGREDNTLIRTTRGGGLIIKILKRTAVFVEGGSEVGPPPAQAMKLNVPRKTRLYVDQTLREREAGTAMHRAFQTDLYLLRLRAARAYLQALESSLSPLSTTAREPLKLHAVVQGLGPTFKLTLHLQNTSTTRPVLGLLVCFLYNEALYSLPRAFFKVPLLVPGLNYPLETFVESLSNKGISDIIKVLVLREGQSAPLLSAHVNMPGSEGLAAA [M390R] was tested. Which “effect of a mutation on the interaction” value did it give?
Answer: decreasing interaction

Reference: IntAct's records for PubMed 19150989
